B1: endostatin: 20 kDa inhibitor of endothelial cell proliferation purified from EOMA conditioned media; C-terminal fragment of collagen XVIII NC1 domain (protein, listed as Homo sapiens)
chain: HSHRDFQPVLHLVALNSPLSGGMRGIRGADFQCFQQARAVGLAGTFRAFLSSRLQDLYSIVRRADRAAVPIVNLKDELLFPSWEALFSGSEGPLKPGARIFSFDGKDVLRHPTWPQKSVWHGSDPNGRRLTESYCETWRTEAPSATGQASSLLGGRLLGQSAASCHHAYIVLCIENSFMTASK
B2: endostatin derived from human: recombinant endostatin from the human sequence, produced in E. coli (protein, listed as Homo sapiens)
chain: B1 chain

Experiments:
[1] = system: bovine capillary endothelial cells; assay: Bovine capillary endothelial (BCE) cell proliferation assay, 72 hours, bFGF; format: cell-based
Experimental: To further characterize the 20 kDa inhibitor, we tested it on several cell lines of endothelial and non-endothelial origin. For the BCE assay, bovine capillary endothelial cells were obtained and grown as previously described (Folkman et al., 1979). For the proliferation assay, cells were washed with PBS and dispersed in a 0.05% solution of trypsin. A cell suspension (25,000 cells/ml) was made with DMEM+10% BCS+1% GPS, plated onto gelatinized 24-well culture plates ([…]), and incubated (37° C., 10% CO2) for 24 hours. The media was replaced with 0.25 ml of DMEM+5% BCS+1% GPS and the test sample applied. After 20 minutes of incubation, media and bFGF were added to obtain a final volume of 0.5 ml of DMEM+5% BCS+1% GPS+1 ng/ml bFGF. After 72 hours, cells were dispersed in trypsin, resuspended in Hematall (Fisher Scientific, Pittsburgh, Pa.), and counted by Coulter counter.

[2] = system: Bovine aortic smooth muscle cells; assay: Non-endothelial cell proliferation assay, SMC; format: cell-based; settings: 72 hours
Experimental: (§1) Bovine aortic smooth muscle (SMC), bovine retinal pigment epithelial (RPE), mink lung epithelial (MLE), Lewis lung carcinoma (LLC), and EOMA cells and 3T3 fibroblasts were maintained in a 10% CO2 and 37° C. incubator. For the proliferation assays, cells were washed with PBS and were dispersed in a 0.05% solution of trypsin. Optimal conditions for the cell proliferation assays were established for each different cell type. Fetal calf serum (FCS) was used for the RPE, MLE, and LLC cells and BCS was used for the other cell types. A cell suspension (20,000 cells/ml for SMC, RPE, MLE; 15,000 cells/ml for 3T3; 10,000 cells/ml for LLC, EOMA) was made with DMEM+10% bovine serum+1% GPS, plated onto 24 well culture plates (0.5 ml/well), and incubated (37° C., 10% C02) for 24 hours. The media was replaced with 0.5 ml of DMEM+5% bovine serum+1% GPS and the test sample applied. After 72 hours, cells were dispersed in trypsin, resuspended in Hematall (Fisher Scientific, Pittsburgh, Pa.), and counted by Coulter counter.

[3] = system: Bovine retinal pigment epithelial cells; assay: Non-endothelial cell proliferation assay, RPE; format: cell-based; settings: 72 hours
Experimental: as §1

[4] = system: 3T3 fibroblasts; assay: Non-endothelial cell proliferation assay, 3T3; format: cell-based; settings: 72 hours
Experimental: as §1

[5] = system: Mink lung epithelial cells; assay: Non-endothelial cell proliferation assay, MLE; format: cell-based; settings: 72 hours
Experimental: as §1

[6] = system: EOMA hemangioendothelioma cells; assay: Non-endothelial cell proliferation assay, EOMA; format: cell-based, murine; settings: 72 hours
Experimental: as §1

[7] = system: Lewis Lung carcinoma cells; assay: Non-endothelial cell proliferation assay, LLC; format: cell-based; settings: 72 hours
Experimental: as §1

[8] = system: cells of non-endothelial origin; assay: Non-endothelial cell proliferation assays, stated for all lines together; format: cell-based; settings: doses 1 log unit higher than those used to inhibit capillary endothelial cell proliferation
Experimental: as §1

[9] = system: Lewis lung carcinoma primary tumors; assay: Systemic therapy of Lewis lung carcinoma primary tumors; format: in vivo, mice; settings: 20 mg/kg/day, FIG. 11

| Molecule | Dose at which inhibition of endothelial cell proliferation was first observed ([1]; 72 hour BCE assay) | Dose giving maximal inhibition of endothelial cell proliferation ([1]; 72 hour BCE assay) | Effect on bovine capillary endothelial cell proliferation ([1]; 72 hour proliferation assay, 1 ng/ml bFGF) | Effect on bovine aortic smooth muscle cell proliferation [2] | Effect on bovine aortic smooth muscle cell proliferation ([2]; listed as ENDOSTATIN) | Effect on bovine retinal pigment epithelial cell proliferation [3] | Effect on 3T3 fibroblast proliferation [4] | Effect on 3T3 fibroblast proliferation ([4]; listed as ENDOSTATIN) | Effect on mink lung epithelial cell proliferation [5] | Effect on EOMA hemangioendothelioma cell proliferation [6] | Effect on EOMA hemangioendothelioma cell proliferation ([6]; listed as ENDOSTATIN) | Effect on Lewis lung carcinoma cell proliferation [7] | Effect on Lewis lung carcinoma cell proliferation ([7]; listed as ENDOSTATIN) | Inhibition of proliferation of cells of non-endothelial origin [8] | Inhibition of Lewis lung carcinoma tumor growth by human endostatin [9] |
| --- | --- | --- | --- | --- | --- | --- | --- | --- | --- | --- | --- | --- | --- | --- | --- |
| B1 | 100 ng/mL | ≥ 600 ng/mL | INHIBITED | no effect | NON-INHIBITED | NON-INHIBITED | no effect | NON-INHIBITED | NON-INHIBITED | no effect | NON-INHIBITED | no effect | NON-INHIBITED | No significant inhibition | – |
| B2 | – | – | – | – | – | – | – | – | – | – | – | – | – | – | effectiveness |

Reference: patent publication US20040091465A1, “Therapeutic antiangiogenic compositions and methods” (priority 2002, published 2004)
